Source: PMC10872772

Experiments:
Experiment in all cases: FRET or BRET
Design in all cases: unit not given beside the values
GST-LXRβ LBD (human) = target: T1, GST-LXRβ LBD (human)
T1 sequence (P55055 whole entry, looked up): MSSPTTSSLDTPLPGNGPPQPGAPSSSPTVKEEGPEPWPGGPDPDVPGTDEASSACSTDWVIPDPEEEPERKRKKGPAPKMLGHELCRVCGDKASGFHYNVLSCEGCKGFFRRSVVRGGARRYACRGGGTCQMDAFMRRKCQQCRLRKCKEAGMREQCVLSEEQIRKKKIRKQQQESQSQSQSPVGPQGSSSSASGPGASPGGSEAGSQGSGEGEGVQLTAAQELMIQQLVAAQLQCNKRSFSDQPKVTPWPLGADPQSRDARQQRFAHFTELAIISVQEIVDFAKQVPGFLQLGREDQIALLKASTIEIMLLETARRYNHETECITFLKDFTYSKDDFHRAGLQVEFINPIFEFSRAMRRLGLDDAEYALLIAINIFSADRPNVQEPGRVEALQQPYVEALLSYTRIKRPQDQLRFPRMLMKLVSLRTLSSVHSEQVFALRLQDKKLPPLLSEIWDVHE

[1] = target: T2, GST-PXR LBD protein (human)
T2 sequence (O75469 whole entry, species assumed, looked up): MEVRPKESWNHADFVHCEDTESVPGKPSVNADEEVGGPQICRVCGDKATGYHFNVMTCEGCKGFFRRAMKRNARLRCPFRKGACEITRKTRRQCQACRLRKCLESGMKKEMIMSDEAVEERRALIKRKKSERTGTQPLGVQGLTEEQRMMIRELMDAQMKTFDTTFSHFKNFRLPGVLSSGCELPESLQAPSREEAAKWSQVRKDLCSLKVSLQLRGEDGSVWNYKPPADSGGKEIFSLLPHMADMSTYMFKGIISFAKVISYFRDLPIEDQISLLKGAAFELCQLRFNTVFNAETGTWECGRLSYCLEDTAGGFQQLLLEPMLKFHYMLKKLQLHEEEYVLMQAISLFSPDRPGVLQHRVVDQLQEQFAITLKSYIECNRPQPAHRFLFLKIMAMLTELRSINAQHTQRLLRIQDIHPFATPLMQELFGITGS

GST-LXRα LBD (human) = target: T3, GST-LXRα LBD (human)
T3 sequence (Q13133 whole entry, looked up): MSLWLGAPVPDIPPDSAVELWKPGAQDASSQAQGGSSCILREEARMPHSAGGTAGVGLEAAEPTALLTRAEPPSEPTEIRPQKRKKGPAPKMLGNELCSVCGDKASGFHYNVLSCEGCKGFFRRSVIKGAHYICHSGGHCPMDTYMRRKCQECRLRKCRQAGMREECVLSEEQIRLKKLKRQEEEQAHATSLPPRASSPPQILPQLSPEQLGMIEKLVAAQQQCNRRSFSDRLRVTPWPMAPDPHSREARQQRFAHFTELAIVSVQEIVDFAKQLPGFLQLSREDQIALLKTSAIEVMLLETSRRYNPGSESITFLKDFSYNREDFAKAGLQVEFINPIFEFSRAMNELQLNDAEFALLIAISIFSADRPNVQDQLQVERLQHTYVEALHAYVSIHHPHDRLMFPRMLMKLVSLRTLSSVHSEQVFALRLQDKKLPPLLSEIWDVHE

AUC of SRC-1 recruitment (TR-FRET) with SJPYT-299 (GST-LXRβ LBD (human)): 133
AUC of SRC-1 recruitment (TR-FRET) with SJPYT-300 (GST-LXRβ LBD (human)): 136
AUC of SRC-1 recruitment (TR-FRET) with SJPYT-301 (GST-LXRβ LBD (human)): 154
AUC of SRC-1 recruitment (TR-FRET) with SJPYT-302 (GST-LXRβ LBD (human)): 149
AUC of SRC-1 recruitment (TR-FRET) with SJPYT-303 (GST-LXRβ LBD (human)): 120
AUC of SRC-1 recruitment (TR-FRET) with SJPYT-304 (GST-LXRβ LBD (human)): 125
AUC of SRC-1 recruitment (TR-FRET) with SJPYT-305 (GST-LXRβ LBD (human)): 76.1
AUC of SRC-1 recruitment (TR-FRET) with SJPYT-315 (GST-LXRβ LBD (human)): 117
AUC of SRC-1 recruitment (TR-FRET) with SJPYT-316 (GST-LXRβ LBD (human)): 144
AUC of SRC-1 recruitment (TR-FRET) with SJPYT-317 (GST-LXRβ LBD (human)): 71.3
AUC of SRC-1 recruitment (TR-FRET) with SJPYT-318 (GST-LXRβ LBD (human)): 21.8
AUC of SRC-1 recruitment (TR-FRET) with SJPYT-319 (GST-LXRβ LBD (human)): 21.5
AUC of SRC-1 recruitment (TR-FRET) with T0901317 (GST-LXRβ LBD (human)): 202
AUC of SRC-1 recruitment (TR-FRET) with SJPYT-299 [1]: 102
AUC of SRC-1 recruitment (TR-FRET) with SJPYT-300 [1]: 102
AUC of SRC-1 recruitment (TR-FRET) with SJPYT-301 [1]: 129
AUC of SRC-1 recruitment (TR-FRET) with SJPYT-302 [1]: 102
AUC of SRC-1 recruitment (TR-FRET) with SJPYT-303 [1]: 134
AUC of SRC-1 recruitment (TR-FRET) with SJPYT-304 [1]: 113
AUC of SRC-1 recruitment (TR-FRET) with SJPYT-305 [1]: 161
AUC of SRC-1 recruitment (TR-FRET) with SJPYT-315 [1]: 57.4
AUC of SRC-1 recruitment (TR-FRET) with SJPYT-316 [1]: 38.7
AUC of SRC-1 recruitment (TR-FRET) with SJPYT-317 [1]: 39.5
AUC of SRC-1 recruitment (TR-FRET) with SJPYT-318 [1]: 47.1
AUC of SRC-1 recruitment (TR-FRET) with SJPYT-319 [1]: 23.6
AUC of SRC-1 recruitment (TR-FRET) with T0901317 [1]: 124
AUC of SRC-1 recruitment (TR-FRET) with SJPYT-299 (GST-LXRα LBD (human)): 67.1
AUC of SRC-1 recruitment (TR-FRET) with SJPYT-300 (GST-LXRα LBD (human)): 80.2
AUC of SRC-1 recruitment (TR-FRET) with SJPYT-301 (GST-LXRα LBD (human)): 95.1
AUC of SRC-1 recruitment (TR-FRET) with SJPYT-302 (GST-LXRα LBD (human)): 108
AUC of SRC-1 recruitment (TR-FRET) with SJPYT-303 (GST-LXRα LBD (human)): 63.6
AUC of SRC-1 recruitment (TR-FRET) with SJPYT-304 (GST-LXRα LBD (human)): 59.5
AUC of SRC-1 recruitment (TR-FRET) with SJPYT-305 (GST-LXRα LBD (human)): 33.4
AUC of SRC-1 recruitment (TR-FRET) with SJPYT-315 (GST-LXRα LBD (human)): 62.3
AUC of SRC-1 recruitment (TR-FRET) with SJPYT-316 (GST-LXRα LBD (human)): 60.8
AUC of SRC-1 recruitment (TR-FRET) with SJPYT-317 (GST-LXRα LBD (human)): 27.2
AUC of SRC-1 recruitment (TR-FRET) with T0901317 (GST-LXRα LBD (human)): 122
B1: FAM-SRC1-B peptide (peptide)
peptide: {FAM-(PEG)5}-CPSSHSSLTERHKILHRLLQEGSPS-NH2
